Source: the supplement of paper PMC10126150
± gives the standard deviation of the averaged measurements.

tested on: ATP; experiment: switch fluorescence ratio, 500 uM ATP over buffer (Cy3 cluster intensity, sum of 5 cycles each) (fold (ratio)); higher = stronger signal-on switching upon ATP binding; sequences stand for … in TCGTCGGCAGCGTCAGATGTGTATAAGAGACAGTTTTTTTTTTTTTTTTTTTTTTTTT…TC; conditions: aptamer strand: ATP DNA aptamer (quencher-CACCTGGGGGAGTATTGCGGAGGAAGG + anchor), 100 nM annealed; ATP concentration: 500 uM
Outline: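 Per cluster, summed Cy3 intensity from the target cycles was divided by that from the buffer cycles to give the fluorescence ratio, then averaged per switch-domain sequence. Clusters outside 100-1000 RFU were excluded. The Cy3-labelled switching-strand clusters, on a modified Illumina MiSeq flow-cell, were annealed to 100 nM quencher-labelled ATP aptamer and imaged in selection buffer, then after 15 min with 500 uM ATP at 22 °C, for five cycles with NaOH stripping and re-annealing between them.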
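Also: ATP exposure 15 min at 22 °C before imaging.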

Sequence	switch fluorescence ratio
GTGTTTATCG	0.966 ± 0.016
GTGTTTATGC	0.991 ± 0.0044
GTGTTTTAAA	1 ± 0.037
GTGTTTTAGG	0.96 ± 0.032
GTGTTTTGGT	0.98 ± 0.024
GTGTTTTTCC	1.41 ± 0.49
GTGTTTTTGT	0.9723 ± 0.0083
GTTAAAATTA	1.01 ± 0.015
GTTAAAGGGG	0.983 ± 0.02
GTTAACAGGA	0.985 ± 0.019
GTTAACGACG	1.017 ± 0.0068
GTTAACTTGA	1.01 ± 0.011
GTTAAGGATG	1.012 ± 0.0071
GTTAATAACA	1.011 ± 0.0052
GTTAATAGAA	0.984 ± 0.035
GTTACAAGCG	0.994 ± 0.018
GTTACAAGGG	0.9883 ± 0.0092
GTTACCTTTT	1.04 ± 0.023
GTTACTGAGG	1.031 ± 0.0017
GTTACTGCTG	1.03 ± 0.043
GTTAGAGATA	0.992 ± 0.015
GTTAGAGGGC	1 ± 0.011
GTTAGAGGGG	1.01 ± 0.033
GTTAGAGGTT	0.999 ± 0.03
GTTAGAGTAT	1 ± 0.012

Sequence	switch fluorescence ratio
GTTAGATTGA	0.96 ± 0.041
GTTAGATTGG	0.982 ± 0.013
GTTAGCGCAT	1.04 ± 0.025
GTTAGCTTGA	0.9966 ± 0.00037
GTTAGCTTGC	0.996 ± 0.029
GTTAGGAGGC	0.989 ± 0.062
GTTAGGAGTT	0.941 ± 0.039
GTTAGGCCTG	0.969 ± 0.013
GTTAGGGGGA	1 ± 0.011
GTTAGGGGTG	1.02 ± 0.023
GTTAGGGTTG	1.02 ± 0.045
GTTAGGTATA	0.9975 ± 0.0098
GTTAGGTTTT	1 ± 0.017
GTTAGTACAG	1.01 ± 0.031
GTTAGTATAA	0.9894 ± 0.0074
GTTAGTCGGT	0.983 ± 0.032
GTTAGTGATG	0.9838 ± 0.003
GTTAGTGGGG	0.992 ± 0.014
GTTAGTGTTG	0.978 ± 0.01
GTTAGTTTTT	0.986 ± 0.02
GTTATAAAGT	0.99 ± 0.024
GTTATAAGTT	1.06 ± 0.027
GTTATAATTG	0.984 ± 0.035
GTTATAGGGT	1.01 ± 0.02
GTTATAGTCG	0.999 ± 0.05

Sequence	switch fluorescence ratio
GTTATATAAC	1.03 ± 0.058
GTTATATAGG	0.982 ± 0.046
GTTATGTGGT	0.975 ± 0.0099
GTTATTCCAA	1.03 ± 0.028
GTTCAAATAG	0.9884 ± 0.0095
GTTCAAGGGG	0.983 ± 0.039
GTTCACTGGG	0.994 ± 0.022
GTTCCAAAGC	1.23 ± 0.019
GTTCCCAGTT	0.997 ± 0.017
GTTCCCTTGA	1.02 ± 0.018
GTTCCGGCGT	1.21 ± 0.25
GTTCCTTGGG	1.01 ± 0.016
GTTCGAAGAC	1.015 ± 0.0023
GTTCGCAAAT	1.09 ± 0.063
GTTCGGGGCT	0.999 ± 0.029
GTTCGGGGGG	1 ± 0.032
GTTCGTATTT	0.997 ± 0.021
GTTCGTCCTC	1.03 ± 0.031
GTTCGTCTTT	1 ± 0.013
GTTCTATGGT	0.998 ± 0.022
GTTCTGAAGG	1.02 ± 0.0029
GTTCTGTCGG	1.002 ± 0.01
GTTCTTGTGT	1.01 ± 0.023
GTTGAACGCG	1.028 ± 0.0015
GTTGAACTTT	1.02 ± 0.046

Sequence	switch fluorescence ratio
GTTGAAGTTT	0.9846 ± 0.0073
GTTGAATTGG	0.985 ± 0.026
GTTGACAAAT	1.036 ± 0.01
GTTGACTGGT	0.95 ± 0.016
GTTGAGGGGA	1.01 ± 0.058
GTTGAGGGTT	0.989 ± 0.049
GTTGAGGTTC	1.03 ± 0.035
GTTGATCAAT	1.03 ± 0.031
GTTGATGGAG	0.992 ± 0.0091
GTTGATGGGA	0.982 ± 0.03
GTTGATGGGG	0.984 ± 0.047
GTTGCATCGA	1.02 ± 0.046
GTTGCCGGGG	1.01 ± 0.015
GTTGCCTTCA	1.14 ± 0.035
GTTGCGGAGT	1 ± 0.021
GTTGCGTGCT	0.969 ± 0.032
GTTGCTAAAT	1 ± 0.03
GTTGCTACTG	1.05 ± 0.041
GTTGCTCTCA	1.01 ± 0.049
GTTGCTGTGG	0.985 ± 0.026
GTTGCTTTTT	0.998 ± 0.035
GTTGGAGCTA	1.036 ± 0.0083
GTTGGAGGAA	0.976 ± 0.0098
GTTGGAGGAG	0.992 ± 0.026
GTTGGAGGAT	0.9843 ± 0.0026

Sequence	switch fluorescence ratio
GTTGGATGTA	1.011 ± 0.008
GTTGGATTAA	1 ± 0.046
GTTGGCATGG	1.025 ± 0.0044
GTTGGCGTGA	1.01 ± 0.057
GTTGGGAAGT	0.994 ± 0.038
GTTGGGAGCG	1 ± 0.033
GTTGGGATTG	1.01 ± 0.013
GTTGGGGCTG	0.973 ± 0.14
GTTGGGGGCG	0.991 ± 0.052
GTTGGGGGG	0.984 ± 0.041
GTTGGGGTTC	0.982 ± 0.027
GTTGGGGTTG	1.01 ± 0.025
GTTGGTAAGA	0.9979 ± 0.0036
GTTGGTATTC	0.9965 ± 0.0086
GTTGGTCGTG	1 ± 0.038
GTTGGTGGGA	0.973 ± 0.025
GTTGGTGTTT	0.985 ± 0.016
GTTGGTTACC	1.01 ± 0.041
GTTGGTTATG	0.99 ± 0.041
GTTGGTTCTT	1 ± 0.039
GTTGTAAAGA	0.98 ± 0.019
GTTGTAACAT	0.99541 ± 0.00081
GTTGTAAGG	1.02 ± 0.025
GTTGTAAGTT	0.978 ± 0.0098
GTTGTATGTA	1 ± 0.049

Sequence	switch fluorescence ratio
GTTGTATGTG	0.965 ± 0.047
GTTGTCGTGT	1.01 ± 0.049
GTTGTGCTTT	0.984 ± 0.011
GTTGTGGATA	0.97 ± 0.029
GTTGTGGCGT	0.9853 ± 0.0069
GTTGTGGGTA	0.975 ± 0.034
GTTGTGGGTT	0.976 ± 0.022
GTTGTTACGG	1.01 ± 0.037
GTTGTTAGAG	0.989 ± 0.021
GTTGTTAGGT	0.97 ± 0.022
GTTGTTGTGA	0.976 ± 0.02
GTTGTTGTGG	1.02 ± 0.034
GTTGTTTACC	1.02 ± 0.021
GTTTAAAAAG	0.9958 ± 0.0034
GTTTAAAGGT	0.996 ± 0.024
GTTTAACCGG	1.01 ± 0.035
GTTTAAGGAC	0.991 ± 0.038
GTTTACAGGC	0.9875 ± 0.0092
GTTTACGCAC	1.75 ± 0.03
GTTTACTCGT	1.02 ± 0.012
GTTTACTTTT	0.986 ± 0.013
GTTTAGGATT	1.21 ± 0.33
GTTTAGGGGC	0.992 ± 0.023
GTTTAGTAAG	1 ± 0.013
GTTTATACCG	0.996 ± 0.015

Sequence	switch fluorescence ratio
GTTTATAGAG	1.01 ± 0.039
GTTTATGTAG	1.01 ± 0.0096
GTTTATGTGA	1.03 ± 0.057
GTTTATTACT	1.01 ± 0.021
GTTTATTCCT	1.02 ± 0.044
GTTTCAGGT	0.991 ± 0.027
GTTTCAGGTT	2.12 ± 1.6
GTTTCATATC	1.02 ± 0.047
GTTTCATGAA	1.01 ± 0.018
GTTTCGAGCG	1.03 ± 0.013
GTTTCGCGA	1.14 ± 0.041
GTTTCGGGTG	1.64 ± 0.84
GTTTCGGTTT	1.1 ± 0.096
GTTTGAATTT	0.989 ± 0.027
GTTTGAGGAG	0.986 ± 0.05
GTTTGAGGCG	1 ± 0.012
GTTTGAGGTG	1 ± 0.044
GTTTGATATA	1.01 ± 0.011
GTTTGCAAGA	1.01 ± 0.028
GTTTGCGGGC	0.947 ± 0.0066
GTTTGGCATG	1.003 ± 0.0051
GTTTGGCCGG	0.998 ± 0.03
GTTTGGCCTT	1.04 ± 0.012
GTTTGGGATG	0.9738 ± 0.0065
GTTTGGGCTT	1.05 ± 0.063

Sequence	switch fluorescence ratio
GTTTGGGGTG	0.999 ± 0.043
GTTTGGTGAG	1.01 ± 0.021
GTTTGTACAC	0.986 ± 0.054
GTTTGTCAGG	0.99 ± 0.04
GTTTGTGGAC	0.997 ± 0.035
GTTTGTGGGC	1.01 ± 0.077
GTTTGTGGGG	0.991 ± 0.021
GTTTGTTAGG	1.012 ± 0.0095
GTTTGTTGGC	0.967 ± 0.056
GTTTTACCTG	1 ± 0.03
GTTTTAGGCG	0.986 ± 0.028
GTTTTAGGGG	1.01 ± 0.052
GTTTTATGG	0.982 ± 0.019
GTTTTATGGT	0.968 ± 0.0075
GTTTTATTGC	0.975 ± 0.04
GTTTTCACAG	0.992 ± 0.033
GTTTTCAGCG	1.01 ± 0.022
GTTTTCGGTA	0.9802 ± 8.4e-05
GTTTTCTTAG	0.9737 ± 0.0031
GTTTTCTTAT	0.998 ± 0.029
GTTTTGAGGG	1.01 ± 0.016
GTTTTGGCGT	0.984 ± 0.021
GTTTTGGCTG	1.02 ± 0.036
GTTTTGGGGA	0.996 ± 0.011
GTTTTGGGTA	1.04 ± 0.041
